# Measured values: the supplement of paper PMC10065799, “High-throughput profiling of sequence recognition by tyrosine kinases and SH2 domains using bacterial peptide display” (eLife, 2023)
# Key:
# Hck = Hck (UniProt P08631); assay: phosphorylation enrichment, bacterial display (enrichment ratio); higher = better substrate or ligand; peptides without Tyr show the background
# FGFR3 = FGFR3 (UniProt P22607); assay: as above
# Jak2 = Jak2 (UniProt O60674); assay: as above
# Fyn = Fyn (UniProt P06241); assay: as above
# Sequence of Fyn (P06241 whole entry, looked up): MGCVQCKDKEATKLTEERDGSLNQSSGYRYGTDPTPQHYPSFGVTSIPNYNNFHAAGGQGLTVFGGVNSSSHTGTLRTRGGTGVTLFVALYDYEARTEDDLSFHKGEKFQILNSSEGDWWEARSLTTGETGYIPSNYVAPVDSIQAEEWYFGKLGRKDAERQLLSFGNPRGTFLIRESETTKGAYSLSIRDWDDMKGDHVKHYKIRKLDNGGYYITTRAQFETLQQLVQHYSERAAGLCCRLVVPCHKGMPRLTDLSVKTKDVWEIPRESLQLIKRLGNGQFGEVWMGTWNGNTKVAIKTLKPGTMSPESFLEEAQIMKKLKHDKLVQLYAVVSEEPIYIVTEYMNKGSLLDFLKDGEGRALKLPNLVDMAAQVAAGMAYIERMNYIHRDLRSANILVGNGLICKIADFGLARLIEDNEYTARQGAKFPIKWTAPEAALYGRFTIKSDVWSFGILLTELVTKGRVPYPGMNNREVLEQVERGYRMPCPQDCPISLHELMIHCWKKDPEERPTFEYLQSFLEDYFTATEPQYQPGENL
# AncSZ = assay: as above
# MERTK = MERTK (UniProt Q12866); assay: as above
# Sequence of MERTK (Q12866 whole entry, looked up): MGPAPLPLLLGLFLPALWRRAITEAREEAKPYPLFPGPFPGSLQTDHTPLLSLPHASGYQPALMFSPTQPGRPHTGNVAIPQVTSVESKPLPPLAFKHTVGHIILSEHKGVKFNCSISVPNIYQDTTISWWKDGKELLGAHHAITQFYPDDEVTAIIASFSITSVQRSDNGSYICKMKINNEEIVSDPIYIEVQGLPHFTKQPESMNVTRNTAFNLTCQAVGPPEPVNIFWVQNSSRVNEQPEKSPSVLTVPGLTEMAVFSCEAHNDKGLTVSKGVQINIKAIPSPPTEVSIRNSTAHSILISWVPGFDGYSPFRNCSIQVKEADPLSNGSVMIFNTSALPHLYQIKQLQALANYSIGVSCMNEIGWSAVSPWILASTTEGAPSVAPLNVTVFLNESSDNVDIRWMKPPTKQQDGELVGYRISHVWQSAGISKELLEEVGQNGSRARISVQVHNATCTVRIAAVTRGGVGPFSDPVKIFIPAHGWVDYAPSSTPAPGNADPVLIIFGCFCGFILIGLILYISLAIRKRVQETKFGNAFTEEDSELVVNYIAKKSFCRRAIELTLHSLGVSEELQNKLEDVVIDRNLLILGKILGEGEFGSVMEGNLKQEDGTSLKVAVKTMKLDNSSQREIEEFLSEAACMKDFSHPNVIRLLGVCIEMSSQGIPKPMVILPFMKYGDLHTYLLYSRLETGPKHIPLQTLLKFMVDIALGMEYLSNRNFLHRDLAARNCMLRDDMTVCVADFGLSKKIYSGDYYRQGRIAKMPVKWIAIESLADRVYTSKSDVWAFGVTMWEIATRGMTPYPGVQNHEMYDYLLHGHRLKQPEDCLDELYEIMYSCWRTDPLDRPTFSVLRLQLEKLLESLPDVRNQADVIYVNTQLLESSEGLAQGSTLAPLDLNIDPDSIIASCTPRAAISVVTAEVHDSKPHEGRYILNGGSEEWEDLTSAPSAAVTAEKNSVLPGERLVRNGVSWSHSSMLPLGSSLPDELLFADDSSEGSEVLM
# FGFR1 = FGFR1 (UniProt P11362); assay: as above
# EPHB2 = EPHB2 (UniProt P29323); assay: as above
# Sequence of EPHB2 (P29323 whole entry, looked up): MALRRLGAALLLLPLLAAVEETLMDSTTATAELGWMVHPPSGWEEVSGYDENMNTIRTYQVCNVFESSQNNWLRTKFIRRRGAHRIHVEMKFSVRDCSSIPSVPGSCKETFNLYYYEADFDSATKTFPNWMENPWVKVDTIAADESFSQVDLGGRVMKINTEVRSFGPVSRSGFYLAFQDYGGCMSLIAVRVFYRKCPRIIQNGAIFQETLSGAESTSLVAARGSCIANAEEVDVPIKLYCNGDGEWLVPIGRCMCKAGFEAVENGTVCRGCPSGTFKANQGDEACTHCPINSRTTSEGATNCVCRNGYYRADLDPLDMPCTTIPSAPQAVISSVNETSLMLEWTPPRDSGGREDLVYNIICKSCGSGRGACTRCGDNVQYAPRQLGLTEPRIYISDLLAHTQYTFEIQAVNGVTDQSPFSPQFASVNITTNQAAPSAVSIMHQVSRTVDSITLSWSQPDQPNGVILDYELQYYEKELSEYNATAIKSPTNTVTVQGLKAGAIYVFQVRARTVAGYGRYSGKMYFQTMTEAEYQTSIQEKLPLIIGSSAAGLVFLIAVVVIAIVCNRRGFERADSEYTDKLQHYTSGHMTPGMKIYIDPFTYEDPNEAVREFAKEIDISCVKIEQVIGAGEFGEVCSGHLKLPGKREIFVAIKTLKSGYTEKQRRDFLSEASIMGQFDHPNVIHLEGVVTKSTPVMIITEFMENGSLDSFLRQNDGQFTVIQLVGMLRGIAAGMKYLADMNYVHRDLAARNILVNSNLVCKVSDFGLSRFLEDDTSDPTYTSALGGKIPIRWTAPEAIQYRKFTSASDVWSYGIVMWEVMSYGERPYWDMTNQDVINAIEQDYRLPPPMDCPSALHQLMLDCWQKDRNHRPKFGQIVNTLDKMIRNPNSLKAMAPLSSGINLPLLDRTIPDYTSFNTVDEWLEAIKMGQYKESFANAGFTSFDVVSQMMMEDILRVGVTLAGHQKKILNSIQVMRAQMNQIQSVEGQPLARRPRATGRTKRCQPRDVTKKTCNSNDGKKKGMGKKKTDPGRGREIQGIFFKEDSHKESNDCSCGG
# EPHB1 = EPHB1 (UniProt P54762); assay: as above
# Fer (mouse) = assay: as above
# c-Src = assay: as above
# Fes = Fes (UniProt P07332); assay: as above
# Sequence of Fes (P07332 whole entry, looked up): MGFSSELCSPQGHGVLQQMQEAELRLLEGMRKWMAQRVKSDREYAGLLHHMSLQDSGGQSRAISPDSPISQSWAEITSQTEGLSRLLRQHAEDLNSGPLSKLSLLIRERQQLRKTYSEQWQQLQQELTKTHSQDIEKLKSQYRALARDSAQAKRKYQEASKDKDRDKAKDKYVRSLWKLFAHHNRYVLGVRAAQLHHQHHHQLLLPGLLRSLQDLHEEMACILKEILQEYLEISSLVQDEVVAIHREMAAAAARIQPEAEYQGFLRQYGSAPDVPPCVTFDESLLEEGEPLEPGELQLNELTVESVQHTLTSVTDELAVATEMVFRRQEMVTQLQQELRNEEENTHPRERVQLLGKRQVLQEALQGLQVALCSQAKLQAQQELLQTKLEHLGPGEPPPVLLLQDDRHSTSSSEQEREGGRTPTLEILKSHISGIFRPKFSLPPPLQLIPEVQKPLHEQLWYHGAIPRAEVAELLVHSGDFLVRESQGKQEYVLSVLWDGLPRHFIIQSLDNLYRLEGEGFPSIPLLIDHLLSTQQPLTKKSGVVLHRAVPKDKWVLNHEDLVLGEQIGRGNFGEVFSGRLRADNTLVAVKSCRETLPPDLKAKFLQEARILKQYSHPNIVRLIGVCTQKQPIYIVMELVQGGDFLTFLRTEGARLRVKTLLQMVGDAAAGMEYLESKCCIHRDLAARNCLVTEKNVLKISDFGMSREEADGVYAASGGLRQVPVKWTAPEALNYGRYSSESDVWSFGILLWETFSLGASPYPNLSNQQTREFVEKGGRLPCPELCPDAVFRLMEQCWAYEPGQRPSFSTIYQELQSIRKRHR
# c-Abl (mouse) = assay: as above
# c-Src SH2 = assay: SH2 binding enrichment of the phosphorylated peptide, bacterial display (enrichment ratio); higher = better substrate or ligand; peptides without Tyr show the background
# Grb2 SH2 = Grb2 SH2 (UniProt P62993); assay: as above
# Sequence of Grb2 SH2 (P62993 whole entry, looked up): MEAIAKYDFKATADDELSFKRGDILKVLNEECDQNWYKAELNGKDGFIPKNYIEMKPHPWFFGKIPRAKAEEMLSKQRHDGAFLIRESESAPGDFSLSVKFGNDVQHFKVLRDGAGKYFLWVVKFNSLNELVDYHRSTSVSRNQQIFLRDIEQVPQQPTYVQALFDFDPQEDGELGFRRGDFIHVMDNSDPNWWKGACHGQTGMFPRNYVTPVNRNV
# SHP2-C SH2 = assay: as above
# 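Wherever SH2 binding enrichment of the phosphorylated peptide, bacterial display is given: peptide library displayed on the E. coli surface as eCPX fusions, selected cells deep-sequenced, score is each peptide's frequency after selection divided by its frequency in the input.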
# 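Wherever phosphorylation enrichment, bacterial display is given: 11-residue human phosphosite peptides and single-mutation variants displayed on the E. coli surface, counted by deep sequencing, each peptide's frequency after selection divided by its frequency in the unselected input library; frequency after pTyr selection over input frequency; kinase dosed for 20-30% of maximal phosphorylation in three min.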
# Sequence of Jak2 (O60674 whole entry, looked up): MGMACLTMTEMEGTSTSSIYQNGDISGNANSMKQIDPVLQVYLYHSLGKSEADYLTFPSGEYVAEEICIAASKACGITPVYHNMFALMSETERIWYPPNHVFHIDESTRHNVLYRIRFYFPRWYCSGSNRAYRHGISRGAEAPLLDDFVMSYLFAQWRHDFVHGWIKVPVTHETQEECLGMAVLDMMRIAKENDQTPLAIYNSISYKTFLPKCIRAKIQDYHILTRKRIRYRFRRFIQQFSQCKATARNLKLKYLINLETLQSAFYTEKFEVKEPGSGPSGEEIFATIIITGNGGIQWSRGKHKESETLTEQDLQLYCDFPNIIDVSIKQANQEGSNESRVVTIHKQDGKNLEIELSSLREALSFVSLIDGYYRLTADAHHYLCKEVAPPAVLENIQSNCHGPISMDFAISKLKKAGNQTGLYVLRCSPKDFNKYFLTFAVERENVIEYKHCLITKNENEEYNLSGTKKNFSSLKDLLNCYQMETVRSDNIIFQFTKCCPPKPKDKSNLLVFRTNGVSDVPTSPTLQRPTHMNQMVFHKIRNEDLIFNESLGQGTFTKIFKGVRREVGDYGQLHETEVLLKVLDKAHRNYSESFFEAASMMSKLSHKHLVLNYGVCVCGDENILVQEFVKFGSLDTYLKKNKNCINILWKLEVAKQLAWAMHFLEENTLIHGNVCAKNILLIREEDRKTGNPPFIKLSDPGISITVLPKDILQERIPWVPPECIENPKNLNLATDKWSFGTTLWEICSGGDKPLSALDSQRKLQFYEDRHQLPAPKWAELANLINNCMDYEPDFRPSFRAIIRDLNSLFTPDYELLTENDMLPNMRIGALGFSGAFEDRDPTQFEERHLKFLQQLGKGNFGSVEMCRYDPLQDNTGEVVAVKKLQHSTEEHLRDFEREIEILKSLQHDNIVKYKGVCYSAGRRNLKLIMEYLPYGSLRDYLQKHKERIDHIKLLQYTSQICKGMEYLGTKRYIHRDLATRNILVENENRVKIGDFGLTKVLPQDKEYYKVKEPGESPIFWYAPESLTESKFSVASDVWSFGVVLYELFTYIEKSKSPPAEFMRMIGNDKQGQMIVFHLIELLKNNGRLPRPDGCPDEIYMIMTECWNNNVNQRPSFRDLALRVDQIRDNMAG
Sequence,phosphorylation enrichment (Hck),phosphorylation enrichment (FGFR3),phosphorylation enrichment (Jak2),phosphorylation enrichment (Fyn),phosphorylation enrichment (AncSZ),phosphorylation enrichment (MERTK),phosphorylation enrichment (FGFR1),phosphorylation enrichment (EPHB2),phosphorylation enrichment (EPHB1),phosphorylation enrichment (Fer (mouse)),phosphorylation enrichment (c-Src),phosphorylation enrichment (Fes),phosphorylation enrichment (c-Abl (mouse)),SH2 binding enrichment (c-Src SH2),SH2 binding enrichment (Grb2 SH2),SH2 binding enrichment (SHP2-C SH2)
DWRQEYVLNES [TGM1_Y267],0.686,0.909,0.863,0.593,1.23,0.53,0.878,0.817,0.55,0.558,1.36,1.15,0.677,0.449,0.856,0.702
EIHTQYEAMAS [GFAP_Y242_R239H],0.539,0.491,0.642,0.514,0.712,0.428,0.527,0.566,0.386,0.677,0.383,0.753,0.42,2.9,0.885,0.487
LTVVIYVLVGR [EPHA3_Y561_I564V],0.168,0.44,0.391,1.12,1.16,0.479,0.54,0.251,0.26,0.348,0.183,0.63,0.81,2.03,3.76,4.03
IKAGAYDFPSP [CAMK2A_Y230],0.419,0.462,0.548,0.747,0.811,4.85,0.397,0.416,0.362,1.43,0.485,0.708,0.551,4.16,1.03,0.687
SHMVNYQPYRK [TEX37_Y25_D24N],0.396,0.353,0.385,0.375,0.528,0.351,0.394,0.332,0.317,0.293,0.401,0.49,0.368,0.472,0.686,0.924
LENQTYFKSFE [AKAP9_Y2482],1.22,0.903,1.13,1.08,1.59,0.81,0.956,1.24,1.24,0.67,0.579,1.33,0.872,0.569,0.978,0.518
KELAPYDENWF [RPS19_Y48],0.517,0.664,1.06,0.506,1.2,0.421,0.563,0.618,0.506,0.53,0.458,1.12,0.597,0.767,0.957,0.685
ECIEFYELDKK [PMM2_Y145_R141C],0.572,0.776,0.977,0.501,1.22,0.485,0.569,0.596,0.579,0.589,0.999,1.13,0.825,0.805,1.11,0.662
ISSLDYISKSK [VAV3_Y294_T298S],0.443,0.587,0.743,0.431,0.648,0.482,0.458,0.467,0.38,0.443,0.478,0.688,0.81,0.365,0.781,0.629
KEAVLYPHLPP [SQSTM1_Y383_A381V],0.385,0.646,0.659,0.415,0.566,0.422,0.444,0.579,0.409,0.363,0.464,0.727,0.798,0.514,0.911,0.658
DPTFGYEDFTR [SESN2_Y323],0.595,0.699,1.03,0.461,1.08,0.545,0.481,0.577,0.525,0.445,0.694,1.28,0.733,5.25,0.821,0.771
DCAAIYGNEPD [AKR1A1_Y50_E55D],1.09,0.957,1.25,1.02,1.35,0.585,0.638,0.726,0.668,0.672,1.65,1.64,0.978,0.982,1.11,0.813
KELANYYKLHH [AK7_Y390],0.495,1.83,2.44,0.453,0.708,0.844,2.93,1.89,4.12,0.383,0.509,0.685,0.497,0.697,0.825,0.622
RIVEIYSRRLR [GCH1_Y175_Q180R],0.736,0.549,0.619,0.922,0.691,0.773,0.292,0.654,0.728,1.15,0.81,0.623,0.692,0.404,0.761,0.353
VEFAKYGSLQG [RET_Y809_R813Q_YF],0.741,0.578,0.846,0.556,0.663,0.384,0.43,0.471,0.536,0.44,0.546,0.9,0.619,0.382,0.745,0.803
TDTAAYEERVR [SPTB_Y474],0.686,0.494,1.9,0.795,0.931,1.2,0.581,0.767,0.692,0.407,0.753,1.25,1.2,0.672,0.937,0.677
YIIFIYAMKKK [SLCO1B1_Y645_L643F],0.473,0.507,0.545,0.343,0.602,0.849,0.655,0.239,0.273,0.433,0.287,0.536,0.465,1.23,2.31,1.68
